From publication PMC10853767 come the findings set out here.

The assay deals with NLS-GS-HIStag-GS-dCas12e-ABI (ABI domain fused directly to dCas12e).

“HA-PYL1-linker-VP64-NLS (PYL1 fused to VP64) (domain or fragment)” yielded a yEGFP activation efficiency of the ABA-sensing YES gate with ABI fused directly to dCas12e and an unchanged sgRNA, circuit 3x; the pair is bridged by the small molecule ABA of 2.79 fold.
